According to US20240026407A1, “MODIFICATION OF SAPONINS” (GLAXOSMITHKLINE BIOLOGICALS SA, priority 2020, published 2024):

Legend:
Format in all cases: biochemical, Quillaja saponaria
[1] = Experiment 5-3: screening of additional glucosidases for deglycosylation with QS-18 in treated bark extract (80%) at pH 6 and 35 deg C; settings: TBE 80% (QS-21 approx. 4 g/L), pH 6, 35 deg C; UV HPLC
Procedure: Experiment 5-1 was repeated, replacing CBE with Treated Bark Extract (TBE) at pH 6. TBE was prepared from CBE by PVPP treatment and concentration, to provide TBE with a QS-21 concentration of approximately 4 g/L. TBE was adjusted to pH 6 by dropwise addition of 2M NaOH with stirring.

[2] = Experiment 5-1: screening of additional glucosidases for deglycosylation with purified QS-18 (0.04 mg/ml) at pH 7.5 and 30 deg C; settings: pH 7.5, 30 degrees C, 18 hours, LCMS/MS
Procedure: The 94 additional genes, together with positive control (DNA encoding SEQ ID No. 262) and negative control, were transformed, expressed, lysed and reacted in the same manner as described above for Experiment 4-1, except the reaction was incubated at 30 degrees C. for 18 hours.
Samples were analysed by LCMS/MS according to the procedure in Experiment 4-1.

[3] = Experiment 5-2: screening of additional glucosidases for deglycosylation with QS-18 in crude bark extract (80%) at pH 6 and 35 deg C; settings: CBE 80%, pH 6, 35 deg C, 18 hours; UV HPLC
How it was run: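 Deglycosylation of QS-18 was monitored by UV HPLC after MeCN/AcOH quench with hexanophenone. The reaction ran 18 hours at 35 deg C, shaking, combining clarified pH 6 lysate with crude bark extract neutralised to pH 6 by NaOH.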

B1: 879 (protein, listed as Morchella conica)
chain: MTVSPLPKDLQKKVNDVLDSLTLLEQVSLLAGKDFWRTVEIPGKVPSIKVTDGPSGARGQFFSGGTKAAFFPSGVSLAATFDPELITHIGNALGQETKTKAAQVLLAPTACNHRSPLGGRNFESFSEDPYLSGKLAASYISGVQAEGVAVTMKHFVANEQETKRFSVNEIIDERALREIYLKPFEIAVREAGPWGIMSSYNKVNAHHADLHPFSMKQVLRAEWGWDGLVMSDWGGTNSTAESLIAGLDLEMPGPTRRRGELLLKAVQDTNSSPELLAAIKTGARHVLELIARTGRWGKFQEAEEQAVDKLEHRELIRKTGAHGIVLLKNEGATLPIKREQIKSVAWIGPNANETIAGGGGSANLNPHYLTNPLESFTAAVEENDIKVAYEIGCQTEKWVRVFPVEEGRARTAPSATEGAPGLKVDFFGGRECSGECVASNVMTTSNIFLMDGKPPVLGDQDYSVRITTYIRPEATGEHVVGVGSIGPTKIYVDDKLLIDHTHWIELGELFFTSGSEEVTQKIHLEAGKWYKLVAETTSKSPEQKLPDMGNDNLDFASAIGIRLGIDAVRDVQEYIDRAATLAKKSDVAVVVVGMNNEWESEGYDRHTMALPGKQNELIEAVVKANPNTIVVNQSGCPVTMPWLDRVPAVLQAWYQGQEAGNALVDVLLGKVNPSGRLPITFPKRLEDNPSFGNFGDGGEKNQIAYTEGIYVGYRHYNSRDIPVLFPFGFGLSYTSFELGAPTVDQAAFEIGKKITVQVPVKNTGAIKGIETVQVYLAPKKSAVDRPKRELKGFAKIELEAGESGVARIELDHYAPGLFCEERKCWRALEGAYVVEVGRNVQEIDGSVEVAVEREYEWVF
- Experiment 5-3 % conv [1]: <0.5%
- Experiment 5-1 % conv [2]: 90.1%
- Experiment 5-2 % conv [3]: <0.5%

B2: 826 (protein)
chain: MSDYPSVNDLTLEEKAALTSGTNPWSLGNVAAKGLPNYTITDGPHGLRKAQNTESMDVEENVPATCFPPAAGMACSWNPELVERVGEAMGEECIQEQVAVILGPGVNIKRNPLGGRCFEYWSEDPYLAGHTAVGIVKGVQSKGVGTSLKHFAANNQETDRLRISATISPRAMREIYLPAFEYIVKTAQPWTVMCSYNKINGVFSSQNRWLLTDVLRGEWGFKGIVMSDWGAVSDRVAALNAGLNLEMPPSNTDDQIVAAAKDGRIPAAQLDEMAQGMIDLVAKARPAMSRDGYRYDVDAHNEVARQAAVESMVLLKNEDATLPVAKGAKIAVIGEFARTPRYQGAGSSLINPTKLTSFLDAIEERGVAADFAPGFTLDDAAQDPALTEQAVTAAQQADVVLLFLGLPAAYESEGFDRTTLDIPAKQVEVLDAVAAANPNVAVVLSNGSVVSMPWRGRAKAILETWLLGQAGGAALADVIFGDETPSGKLAQTIIDDVNDDPSAMNWPGEEGHVDYGEGVFVGYRYHDTFRKQVTYPFGYGLSYATFDVHDATVAKTGPRTAEVTVTVTNTSDVAGAETVQVYVAPPKAKVARPVHELKGFAKVALEPGESKNVTIALDDRAFAYWSERFDDWHVEGGTYTVEVGVSSRDIVSRIDVEIDDDGKIMNLDEWSTFGEWLDDPIGAPILQHVLDDMAKEAGHPVIPDSALMVMFLRSMPLRSLSVILGEAGEQVAANLTEAYRKATA
modifications: Bifidobacterium saeculare
- Experiment 5-3 % conv [1]: 1.4%
- Experiment 5-1 % conv [2]: 86.9%
- Experiment 5-2 % conv [3]: 0.8%

B3: 868 (protein, listed as Dictyoglomus thermophilum)
chain: MKLEYKIPYRIERGEQTNFSPLFIRIISQGGKQMEKDIKKLISQMTLEEKASLCSGLDFWHTKPIERLGIPSIRMSDGPHGLRKEETMFSKTVPATCFPTAVTIAASWDKLLAEKMGKAIGEECQAENVQILLGPGINMKRSPLCGRNFEYYSEDPILAGELAAHFIKGVQSQGVGTSLKHFAANNQEHRRLTVDAIIDERTLREIYLTAFEKAVKEAKPWTVMCSYNKVNGTYASENEFLLTKVLREEWGFEGFVVSDWGAVNDRVKGLAAGLDLQMPYDGGNGDKKIIEAVKSGKLPEEVLDRAVERILKIVFKAIENKKENATYDKEAHHKLAREIARECFVLLKNENNILPLKKEGKIALIGAFAKKPQIQGGGSAHVNPTRVDDAVEEIKKLVGDKVEILYADGYHIEKDDVDEKLIEEAKEIAKKADVVVIFAGLPERYESEGFDRPHMKMPESHNRLIEEVAKVNSNLVVVLSNGAPIEMPWVDKPKAILETYRGGQAWGGAVADVLFGVVNPSGKLPESFPKKLSDNPSYLFFPGEDDRSEYREGIFIGYRYYDKKEMEVLFPFGYGLSYTTFEYSDLKLDKKEMKDDEVLKVSVKVKNTGKVKGKEIVQLYVRDVKSNYIRPEKELKGFEKVELEPGEEKEVVFYLDKRAFAFYNIDIKDWYVEDGEFEILIGKSSRDIVLKDKVFVKSTTKIKRHYHINSTIGDIMSDPEASAKFKHILEQFASAFPAFSSEEAIMNFAEMMKYMPLRNLIHFGQGKFTEEMLENLLKEINS
- Experiment 5-3 % conv [1]: <0.5%
- Experiment 5-1 % conv [2]: 89.9%
- Experiment 5-2 % conv [3]: <0.5%
